Broadly, the stoichiometry N is a count of units in the complex or per binding partner.

Here are results for six molecules from PMC13200811 (Cell, 2025).

Residue numbers refer to the chain shown, from its start. Names may count otherwise. Where two headings read alike, the source gives them in different places.

The target in data set [1] is BCL-wΔN (aa 40-193; α2-α9) (human) (UniProt Q92843). As to the kind of experiment: SEC. (In gel filtration, larger molecules generally elute earlier.)
For data set [2], the target named is BCL-wΔNΔC (aa 40-156; α2-α8) (human) (UniProt Q92843). As to the kind of experiment: SEC.
Data set [3] concerns the molecule itself. As to the kind of experiment: SEC.
Data set [4] deals with the molecule itself. As to the kind of experiment: SEC. This is another data set of the same source.
For data set [5], the target named is T1, full-length monomeric BCL-w (aa 1-193) (human), Q92843.
T1 chain: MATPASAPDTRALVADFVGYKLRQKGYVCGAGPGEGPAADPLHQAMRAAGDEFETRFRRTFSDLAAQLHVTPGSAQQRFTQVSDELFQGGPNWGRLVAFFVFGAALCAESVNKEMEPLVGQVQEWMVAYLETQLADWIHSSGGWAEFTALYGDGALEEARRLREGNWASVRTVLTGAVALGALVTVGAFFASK
As to the kind of experiment: SEC-MALS. Particulars: remark: other sources report otherwise.

Data set [6] concerns the target T1, full-length monomeric BCL-w (aa 1-193) …. As to the kind of experiment: SEC-SAXS. Particulars: remark: other sources report otherwise.

As for “BCL-wΔN (aa 40-193; α2-α9) (from UniProt Q92843 40-193) (domain or fragment)”, the stoichiometry N in data set [1] is 2.
Molecule “BCL-wΔNΔC (aa 40-156; α2-α8) (from UniProt Q92843 40-156) (domain or fragment)” gave a stoichiometry N in data set [2] of 2.

B1: GFP-BCL-w α1-α8 (aa 1-156) (domain or fragment, human, UniProt Q92843 1-156, looked up)
chain: MATPASAPDTRALVADFVGYKLRQKGYVCGAGPGEGPAADPLHQAMRAAGDEFETRFRRTFSDLAAQLHVTPGSAQQRFTQVSDELFQGGPNWGRLVAFFVFGAALCAESVNKEMEPLVGQVQEWMVAYLETQLADWIHSSGGWAEFTALYGDGAL
Take B1: the “stoichiometry N” value in the data set “SEC [3]” was 2.

B2: BCL-wΔC (aa 1-156; α1-α8) (domain or fragment, human, UniProt Q92843 1-156, looked up)
chain: B1 chain
As for B2, the “stoichiometry N” value in the data set “SEC [4]” was 2.

B3: full-length monomeric BCL-w (aa 1-193), Q92843 1-193 (natural protein)
chain: T1 chain
For the molecule B3, the stoichiometry N in data set [5] and in data set [6] was 2 in each case.

B4: BCL-w G94E (full length) (natural protein, human, UniProt Q92843 1-193, looked up)
chain: T1 chain with G94E
Take B4: the “stoichiometry N” value in “SEC [4]” came to 2.
